Experiments:
[1] = molecular target: T1, recombinant human CD8 (rhCD8) (human, UniProt P01732 22-182); experiment: SPR (summary table)
T1 construct: Soluble purified recombinant protein; also called purified recombinant human CD8 protein; soluble CD8
Description: (§1) Surface plasma resonance (SPR) was used to determine the binding affinity for all the IAb_Mb_CD8 variants to recombinant human CD8 (Table 8.0). The minibody protein in the supernatant was captured on to the BIAcore chip using an anti-human IgG (Fc-specific) antibody. The amount of minibody captured on the chip was normalized to enable a direct comparison of binding affinity between the variants as a kinetic “scouting” experiment to rank affinities. The rhCD8 protein was passed over the captured minibody protein to measure binding.
(§2) Table 8.0 summarizes the measured association (ka), dissociation (kd), and kD constants for the IAb_Mb_CD8 variants binding to recombinant hCD8. The variants were captured on a BIAcore chip using anti-human Fc-specific IgG antibody.

cell-surface human CD8 [2] = molecular target: T2, cell-surface human CD8 (human, UniProt P01732 22-235); experiment: flow cytometry, HPB-ALL cells
T2 construct: the cell is named under assay; also called cellular human CD8; CD8 on PC3-CD8 cells
Description: (§3) Flow cytometry analysis of minibodies binding to cell-surface human CD8 on HPB-ALL cells was performed. Cells were stained with respective concentrations of minibody, washed, and then stained with a secondary anti-human IgG (Fc-specific) APC-conjugated antibody. Analysis was performed with 10,000 events/point in triplicate for each concentration. The results are shown in graph format in FIG. 29A. The graph presents the normalized mean fluorescence intensity (MFI) vs. the log of the concentration (nM). Error bars represent the standard error. The data indicates an EC₅₀ of 0.15 nM and 0.19 nM.
as §3, with “analysis of IgG2 minibodies binding” for “analysis of minibodies binding”, “in FIG. 29E. The graph” for “in FIG. 29A. The graph”, “EC₅₀ of 0.1 nM, 0.13 nM, and 0.08” for “EC₅₀ of 0.15 nM and 0.19”, “nM, and 0.08 nM.” for “nM and 0.19 nM.”

cell-surface human CD8 [3] = molecular target: T2, cell-surface human CD8; experiment: flow cytometry, primary human CD8+ T cells
Description: as §3, with “primary human CD8+ T” for “HPB-ALL”, “29B.” for “29A.”, “0.1” for “0.15”, “0.26” for “0.19”

cell-surface human CD8 [4] = molecular target: T2, cell-surface human CD8; experiment: flow cytometry, PC3 cells overexpressing CD8
cell-surface human CD8 [5] = molecular target: T2, cell-surface human CD8; experiment: flow cytometry on HPB-ALL cells, anti-human IgG (Fc-specific)-APC
Description: as §3

cell-surface human CD8 [6] = molecular target: T2, cell-surface human CD8; experiment: as above; remark: listed apart in the source
cell-surface human CD8 [7] = molecular target: T2, cell-surface human CD8; experiment: as above; remark: listed apart in the source
Description: as §3, with “analysis of IgG2 minibodies binding” for “analysis of minibodies binding”, “in FIG. 29E. The graph” for “in FIG. 29A. The graph”, “EC₅₀ of 0.1 nM, 0.13 nM, and 0.08” for “EC₅₀ of 0.15 nM and 0.19”, “nM, and 0.08 nM.” for “nM and 0.19 nM.”

[8] = molecular target: T1, recombinant human CD8 (rhCD8); experiment: SPR (BIAcore), minibody captured via anti-human IgG Fc, hCD8 analyte at 50 nM
Description: as §1, §2

cell-surface human CD8 [9] = molecular target: T2, cell-surface human CD8; experiment: flow cytometry on primary human CD8+ T cells, anti-human IgG (Fc-specific)-APC
Description: as §3, with “primary human CD8+ T” for “HPB-ALL”, “29B.” for “29A.”, “0.1” for “0.15”, “0.26” for “0.19”

cell-surface human CD8 [10] = molecular target: T2, cell-surface human CD8; experiment: flow cytometry on PC3 cells overexpressing CD8, anti-human IgG (Fc-specific)-APC
Description: Flow cytometry analysis of minibody (+/−lysine conjugation to Desferoxamine) binding to PC3 cells overexpressing CD8 was performed. Cells were stained with respective concentrations of minibody, washed, and then stained with a secondary anti-human IgG (Fc-specific) APC-conjugated antibody. Analysis was performed with 10,000 events/point in triplicate for each concentration. The results are shown in graph format in FIG. 29D. The graph presents the mean fluorescence intensity (MFI) vs. the log of the concentration (nM). Error bars represent the standard error. The data indicates an EC₅₀ of 0.64 nM and 0.83 nM.

[11] = molecular target: T1, recombinant human CD8 (rhCD8); experiment: ELISA on plate-coated rhCD8, transfection supernatant, HRP goat anti-human IgG (Fc-specific), TMB, absorbance 405 nm
Description: 96 well plates were coated with rhCD8 antigen and incubated with supernatants obtained from the transient transfection. Binding was detected with HRP-conjugated goat anti-human (Fc-specific) IgG and TMB substrate. The absorbance measured at 405 nm. Dilutions were done in triplicate. Data is shown as mean of relative absorbance.

cell-surface human CD8 [12] = molecular target: T2, cell-surface human CD8; experiment: flow cytometry, HPB-ALL cells; remark: listed apart in the source
Description: as §3, with “the OKT8 mAbconstruct” for “minibodies”, “antibody,” for “minibody,”, “anti-mouse” for “anti-human”, “28.” for “29A.”, “the” for “the normalized”, “0.22” for “0.15 nM and 0.19”

cell-surface human CD8 [13] = molecular target: T2, cell-surface human CD8; experiment: flow cytometry, HPB-ALL cells; Table 9 summary, HPB-ALL cells
Description: as §3, with “the OKT8 mAbconstruct” for “minibodies”, “antibody,” for “minibody,”, “anti-mouse” for “anti-human”, “28.” for “29A.”, “the” for “the normalized”, “0.22” for “0.15 nM and 0.19”

[14] = molecular target: T1, recombinant human CD8 (rhCD8); experiment: SPR (BIAcore), antibody as captured ligand, hCD8 analyte at 50 nM
cell-surface human CD8 [15] = molecular target: T2, cell-surface human CD8; experiment: flow cytometry on HPB-ALL cells, anti-mouse IgG (Fc-specific)-APC
Description: as §3, with “the OKT8 mAbconstruct” for “minibodies”, “antibody,” for “minibody,”, “anti-mouse” for “anti-human”, “28.” for “29A.”, “the” for “the normalized”, “0.22” for “0.15 nM and 0.19”

[16] = molecular target: T1, recombinant human CD8 (rhCD8); experiment: SPR (summary table); Table 9 summary

T1 sequence (P01732 22-182 limits assumed): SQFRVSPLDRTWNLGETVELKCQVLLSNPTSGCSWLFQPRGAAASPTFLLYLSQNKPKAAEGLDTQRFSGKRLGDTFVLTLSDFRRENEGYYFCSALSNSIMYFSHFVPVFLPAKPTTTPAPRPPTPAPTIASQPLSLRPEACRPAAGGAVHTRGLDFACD
T2 sequence (P01732 22-235 limits assumed): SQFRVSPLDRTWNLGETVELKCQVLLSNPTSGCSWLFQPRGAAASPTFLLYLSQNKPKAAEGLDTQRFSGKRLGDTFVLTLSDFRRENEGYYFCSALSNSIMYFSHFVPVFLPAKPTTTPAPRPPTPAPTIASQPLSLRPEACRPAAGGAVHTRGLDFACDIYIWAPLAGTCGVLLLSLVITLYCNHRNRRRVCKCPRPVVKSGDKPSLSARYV

B1: IAb_Mb1b_CD8 (other)
chain: DVQITQSPSSLSASVGDRVTITCRTSRSISQYLAWYQQKPGKVPKLLIYSGSTLQSGVPSRFSGSGSGTDFTLTISSLQPEDVATYYCQQHNENPLTFGGGTKVEIKGSTSGGGSGGGSGGGGSSEVQLVESGGGLVQPGGSLRLSCAASGFNIKDTYIHFVRQAPGKGLEWIGRIDPANDNTLYASKFQGKATISADTSKNTAYLQMNSLRAEDTAVYYCGRGYGYYVFDHWGQGTLVTVSSEPKSCDKTHTCPPCGGGSSGGGSGGQPREPQVYTLPPSRDELTKNQVSLTCLVKGFYPSDIAVEWESNGQPENNYKTTPPVLDSDGSFFLYSKLTVDKSRWQQGNVFSCSVMHEALHNHYTQKSLSLSPGK
notes: also called IAb M1b CD8
With B1 the Kd [1] was 1.9 nM, the EC50 (cell-surface human CD8 [2]) was 0.1 nM and the EC50 (cell-surface human CD8 [3]) was 0.1 nM. For the same binder, the EC50 (cell-surface human CD8 [4]) was 0.6 nM, the EC50 (cell-surface human CD8 [5]) was 0.15 nM and the EC50 (cell-surface human CD8 [6]) was 0.13 nM. For the same binder, the EC50 (cell-surface human CD8 [7]) was 0.1 nM, the Ka [8] was 5.4e+08 M⁻¹ and the Kd [8] was 1.9 nM. For the same binder, the koff [8] was 0.0012 s⁻¹, the kon [8] was 640000 M⁻¹ s⁻¹ and the EC50 (cell-surface human CD8 [9]) was 0.1 nM. For the same binder, the “EC50 (read off the curve)” value (cell-surface human CD8 [9]) was about 0.1 nM, the EC50 (cell-surface human CD8 [10]) was 0.64 nM and the “EC50 (read off the curve)” value (cell-surface human CD8 [10]) was about 0.7 nM.

B2: IAb_M1b_CD8-Df (other)
chain: DVQITQSPSSLSASVGDRVTITCRTSRSISQYLAWYQQKPGKVPKLLIYSGSTLQSGVPSRFSGSGSGTDFTLTISSLQPEDVATYYCQQHNENPLTFGGGTKVEIKGSTSGGGSGGGSGGGGSSEVQLVESGGGLVQPGGSLRLSCAASGFNIKDTYIHFVRQAPGKGLEWIGRIDPANDNTLYASKFQGKATISADTSKNTAYLQMNSLRAEDTAVYYCGRGYGYYVFDHWGQGTLVTVSSEPKSCDKTHTCPPCGGGSSGGGSGGQPREPQVYTLPPSRDELTKNQVSLTCLVKGFYPSDIAVEWESNGQPENNYKTTPPVLDSDGSFFLYSKLTVDKSRWQQGNVFSCSVMHEALHNHYTQKSLSLSPGK
modifications: Desferoxamine (Df) conjugated to lysine residues
notes: also called Df-labeled minibody
In the case of B2, the EC50 (cell-surface human CD8 [6]) is reported as 0.12 nM, the EC50 (cell-surface human CD8 [10]) is reported as 0.83 nM and the “EC50 (read off the curve)” value (cell-surface human CD8 [10]) is reported as about 0.9 nM.

B3: IAb_Mb1c_CD8 (other)
chain: DVQITQSPSSLSASVGDRVTITCRTSRSISQYLAWYQQKPGKVPKLLIYSGSTLQSGVPSRFSGSGSGTDFTLTISSLQPEDVATYYCQQHNENPLTFGGGTKVEIKGSTSGGGSGGGSGGGGSSQVQLVQSGAEVKKPGATVKISCKVSGFNIKDTYIHFVQQAPGKGLEWIGRIDPANDNTLYASKFQGKATITADTSTDTAYMELSSLRSGDTAVYYCGRGYGYYVFDHWGQGTLVTVSSEPKSCDKTHTCPPCGGGSSGGGSGGQPREPQVYTLPPSRDELTKNQVSLTCLVKGFYPSDIAVEWESNGQPENNYKTTPPVLDSDGSFFLYSKLTVDKSRWQQGNVFSCSVMHEALHNHYTQKSLSLSPGK
notes: also called variant 1c
For B3, the Ka [8] was 4e+08 M⁻¹, the Kd [8] was 2.5 nM and the koff [8] was 0.0018 s⁻¹. The kon [8] was 700000 M⁻¹ s⁻¹ and the “EC50 (read off the curve)” value [11] was about 0.02 µg/mL.

B4: OKT8 mAb (antibody, V domains shown)
VH: EVQLQQSGAELVKPGASVKLSCTASGFNIKDTYIHFVRQRPEQGLEWIGRIDPANDNTLYASKFQGKATITADTSSNTAYMHLCSLTSGDTAVYYCGRGYGYYVFDHWGQGTTLTVSS
VL: DVQINQSPSFLAASPGETITINCRTSRSISQYLAWYQEKPGKTNKLLIYSGSTLQSGIPSRFSGSGSGTDFTLTISGLEPEDFAMYYCQQHNENPLTFGAGTKLELK
notes: Parental murine monoclonal antibody (detected with anti-mouse IgG Fc); also called parental OKT8 antibody; parental OKT8
With B4 the Kd [1] was 1.8 nM, the EC50 (cell-surface human CD8 [12]) was 0.22 nM and the EC50 (cell-surface human CD8 [13]) was 0.33 nM. It also gave a Ka [14] of 5.5e+08 M⁻¹, a Kd [14] of 1.8 nM and a koff [14] of 0.001 s⁻¹. For the same binder, the kon [14] was 560000 M⁻¹ s⁻¹, the EC50 (cell-surface human CD8 [15]) was 0.33 nM and the “EC50 (read off the curve)” value (cell-surface human CD8 [15]) was about 0.3 nM.

B5: IAb_Mb2b_CD8 (other)
chain: EVQLVESGGGLVQPGGSLRLSCAASGFNIKDTYIHFVRQAPGKGLEWIGRIDPANDNTLYASKFQGKATISADTSKNTAYLQMNSLRAEDTAVYYCGRGYGYYVFDHWGQGTLVTVSSGSTSGGGSGGGSGGGGSSDVQITQSPSSLSASVGDRVTITCRTSRSISQYLAWYQQKPGKVPKLLIYSGSTLQSGVPSRFSGSGSGTDFTLTISSLQPEDVATYYCQQHNENPLTFGGGTKVEIKEPKSCDKTHTCPPCGGGSSGGGSGGQPREPQVYTLPPSRDELTKNQVSLTCLVKGFYPSDIAVEWESNGQPENNYKTTPPVLDSDGSFFLYSKLTVDKSRWQQGNVFSCSVMHEALHNHYTQKSLSLSPGK
notes: also called IAb M2b CD8
In the case of B5, the EC50 (cell-surface human CD8 [2]) is reported as 0.19 nM, the Kd [16] is reported as 3.6 nM and the EC50 (cell-surface human CD8 [3]) is reported as 0.26 nM. The EC50 (cell-surface human CD8 [5]) was 0.19 nM, the Ka [8] was 2.6e+08 M⁻¹ and the Kd [8] was 3.9 nM. For the same binder, the koff [8] was 0.0021 s⁻¹, the kon [8] was 540000 M⁻¹ s⁻¹ and the EC50 (cell-surface human CD8 [9]) was 0.26 nM. For the same binder, the “EC50 (read off the curve)” value (cell-surface human CD8 [9]) was about 0.3 nM.

Reference: US20190382488A1 (IMAGINAB, published 2019)
